From patent US6652861B1, “Anti-HIV and anti-tumor peptides and truncated polypeptides of MAP30” (priority 1999, dated 2003) come the findings set out here.

A word on the EC50: it is the concentration at which the effect is half-maximal.

Several values for one entry are separate records, joined by “and”; a condition that tells them apart may be missing. Identical values can stand only once. Entries after “also recorded” stand apart in the source; their conditions may differ.

For series [1], the system named is human spermatozoa. Description: Sperm vitality by eosin Y/nigrosine staining. Format: cell-based. The settings on record: vital stain. As for the experimental part:
The vitality staining was carried out by adding two drops of eosin Y to one drop of sperm sample and mixing for ten seconds. Two drops of nigrosine were then added to this mixture, and the solutions as mixed for 30 seconds. Slides were made from one drop of each solution mixed with MAP30, or GAP31, or N-9.

Another series relates to HIV-1(IIIB). Kind of series: Anti-HIV assay: p24 expression in HIV-infected MT-4 T lymphocytes. It counts as cell-based. As for the experimental part:
Anti-HIV activity was assayed by inhibition on viral core protein, p24 expression in HIV-infected MT-4 T lymphocytes by RIA as described previously (World Health Organization (1992); Bourinbaiar et al (1995)). Briefly, the cells were plated in duplicated in 96-well microtiter plates at 1×10^5 cells/ml in the presence of serial 10-fold dilution of MAP30, or GAP31 or NP-9 at concentrations from […]. The cells were then infected with HIV-1(IIIB) at 100 infectious units per cell. The culture supernatants were collected on day 3 and were used for p24 assay using ELISA kit from Coulter (Hialeah, Fla.). Duplicates of original viral inoculum in the same volume of the medium without the target cells and incubated for 3 days were used as blanks. The blank values were subtracted from wells in which virus was propagated in host MT4 cells with or without drugs.

Another series has as its system HSV-2. Kind of series: Anti-HSV assay by ELISA in WI-38 cells. Format: cell-based. As for the experimental part:
Anti-HSV activity was assayed with HSV-2 by ELISA (Meridian Diagnostics, Inc., Cincinnati, Ohio) as reported previously (Bourinbaiar et al (1996)). Human embryonic lung fibroblast cell line WI-38, (CCL-75, from ATCC, Rockville, Md.) was used as target cells. HSV-2 (VR-734, strain G) derived from a human with the genital infection was obtained from ATCC, Rockville, Md.
A general note: ELISA stands for enzyme-linked immunosorbent assay.

Series [2] deals with endoproteinase Lys-C and Glu-C (V8). Kind of series: Resistance to limited proteolysis with Lys-C and V8 (SDS-PAGE). The settings on record: Lys-C or V8, up to 24 hr. As for the experimental part: MAP30 and GAP31 were subjected to proteolysis with sequencing grade endoproteinase Lys-C and Glu-C (Promega, Madison, Wis.). Lys-C cleaves at the carboxylic side of lysine (Elliott et al., 1986). Glu-C, also known as V8 protease, cleaves specifically at the carboxylic side of glutamic acid in the presence of ammonium ion (Drapeau et al., 1972). In the absence of ammonium ion, Glu-C acts at both aspartic and glutamic acids. The reaction buffers for Lys-C and V8 were 25 mM Tris-HCl, pH 7.8, 1 mM EDTA and 50 mM ammonium bicarbonate, pH 7.8 respectively.
FIGS. 1A-1D show time course SDS-PAGE patterns of Lys-C and V8 digestions of MAP30 and GAP31. Three major fragments were produced in each case. These fragments are designated MLF25, MLF21, MLF0.8 (MAP30 Lys-C Fragments of 25, 21, and 0.8 kDa, FIG. 1A), MVF25, MVF21, MVF0.8 (MAP30 V8 Fragments of 25, 21, and 0.8 kDa, FIG. 1B), GLF26, GLF22, GLF0.6 (GAP31 Lys-C Fragments of 26, 22 and 0.6 kDa, FIG. 1C), and GVF26, GVF22, GVF0.6 (GAP31 V8 Fragments of 26, 22 and 0.6 kDa, FIG. 1D). The smaller peptides are C-terminal fragments produced during proteolysis and they are sensitive to further digestion to short peptides.

Series [3] has as its system human spermatozoa. Description: Sperm motility by counting. Format: cell-based. As for the experimental part: Ten semen samples were randomly obtained form ten donors at the Andrology laboratory of the Department of Obstetrics and Gynecology at NYU Medical Center. All specimens were normal semen samples according to WHO guidelines. Each sample consisted of greater than or equal to 20 million motile sperm per milliliter. Sperm count and motility were determined by placing the sperm on a hackler chamber and assessing the samples under a 40× power microscopic field.
Each semen sample was washed two consecutive times in Ham's F-10 media. The washed sperm was spun to a pellet and then re-suspended in media to a concentration of 40 million spermatocytes per milliliter with at least 50% motility. Five microliters of sperm were then suspended in 100 microliters each of PBS, serial 10-fold dilutions of MAP30, or GAP31 or N-9 from 100 to 0.1 microg/ml. N-9 was used as a positive control. Motility and forward progression were assessed at each log concentration of the three compounds. The exposure time ranged form five minute to two hours.

B1: MAP30: Momordica Anti-HIV Protein 30 kDa, native full-length, SEQ ID NO:1, from bitter melon (protein, listed as Momordica charantia)
chain: DVNFDLSTATAKTYTKFIEDFRATLPFSHKVYDIPLLYSTISDSRRFILLDLTSYAYETISVAIDVTNVYVVAYRTRDVSYFFKESPPEAYNILFKGTRKITLPYTGNYENLQTAAHKIRENIDLGLPALSSAITTLFYYNAQSAPSALLVLIQTTAEAARFKYIERHVAKYVATNFKPNLAIISLENQWSALSKQIFLAQNQGGKFRNPVDLIKPTGERFQVTNVDSDVVKGNIKLLLNSRASTADENFITTMTLLGESVVN
For B1, the “sperm vitality after treatment” value in the series on human spermatozoa [1] is “remained vital and impermeable to the pink dye; also recorded: Identical results”. Besides, in the series with HIV-1(IIIB) (HIV-1 infected MT4 lymphocytes), the EC50 was 0.3 nM; the “EC50 anti-HIV, p24” value was 1 ng/mL; the “EC100 anti-HIV, p24 (complete inhibition of HIV-1)” value is 0.1 µg/mL and 0.08 µg/mL; the “EC100 anti-HIV, p24 (molar)” value was 3.3 nM. In addition, in the series on HIV-1(IIIB) (anti-HIV p24, MT4), the “fold more potent than N-9 in terms of molar concentration at EC50” value is “about 540 fold” and the “fold more potent than N-9 in terms of weight per volume” value is “about 100 fold”. Besides, the “concentration of complete inhibition of p24 expression (FIG. 9)” value in the series on HIV-1(IIIB) (p24 ELISA of HIV-infected MT4 culture supernatant) is 0.1 microgram/ml. Also, the “EC100 for HSV-2 (complete inhibition)” value in the series on HSV-2 came out at 0.01 µg/mL. Besides, the resistance to proteolysis result in series [2] was “no proteolysis was detected up to 24 hr of treatment even at as much as 5% (W/W) of enzyme”. For the same molecule, the “inhibition of sperm motility at 100 μg/ml” value with human spermatozoa [3] (100 μg/ml) is reported as “only marginal effect”. The “effect on sperm motility at the antiviral EC100 concentrations” value with human spermatozoa [3] (0.01 to 0.1 μg/ml) is listed as “no significant effect on sperm motility”. Also, in the series with human spermatozoa [3] (0.1 to 100 μg/ml), the “spermicidal activity / motility inhibition over the entire concentration ranges tested” value is given as “little spermicidal activity; also recorded: little inhibition”.
